The results in this text go back to patent US20140194361A1, “Vault Agents for Treating Chronic Kidney Disease” (priority 2010, published 2014).

The assay addresses α5β1 integrin receptor on primary mesangial cells. The assay is described as follows: cell-based or functional assay.

“D-vault (CGRGDSP peptide-INT packaged in purified vault)” came in with an inhibition of attachment of MC to fibronectin compared to untreated MC of 1.7 fold.
